Test results: paper PMC7515730
Substitutions are numbered along the chain they refer to.

T1: CSTF2 (CstF-64) RRM wild type (Homo sapiens, UniProt P33240 1-107)
T1 sequence: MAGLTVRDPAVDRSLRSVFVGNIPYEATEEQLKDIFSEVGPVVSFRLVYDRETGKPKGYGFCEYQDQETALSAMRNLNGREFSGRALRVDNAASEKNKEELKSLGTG

T2: CSTF2 D50A RRM (Homo sapiens, UniProt P33240 1-107, D50A)
T2 sequence: T1 sequence with D50A

B1: SVL RNA, 3'-fluorescein (ssRNA)
RNA: AUUUUAUGUUUCAGGU
B2: (GU)8 RNA, 3'-fluorescein (ssRNA)
RNA: GUGUGUGUGUGUGUGU
B3: SVL RNA, unlabeled (ssRNA)
RNA: AUUUUAUGUUUCAGGU

Assays:
[1] = molecular target: T1, CSTF2 (CstF-64) RRM wild type; assay: fluorescence polarization
CSTF2 D50A RRM [2] = molecular target: T2, CSTF2 D50A RRM; assay: fluorescence polarization
CSTF2 D50A RRM [3] = molecular target: T2, CSTF2 D50A RRM; assay: ITC
[4] = molecular target: T1, CSTF2 (CstF-64) RRM wild type; assay: ITC

| Binder | Kd [1] [nM] | Kd (CSTF2 D50A RRM [2]) [nM] | Kd (CSTF2 D50A RRM [3]) [nM] | Kd [4] [nM] |
| --- | --- | --- | --- | --- |
| B1 | 1450 ± 70 | – | – | – |
| B2 | 260 ± 20 | 170 ± 10 | – | – |
| B3 | – | – | 698 ± 60 | 1520 ± 170 |
